Experimental data: patent US20200024337A1 (H LUNDBECK A S, published 2020)
Residue numbers refer to the chain shown, from its start. Read-outs that look alike come from different tables or passages of the source.

B1: mouse 2E6 (antibody, V domains shown)
VH: QVQLQQPGAELVKPGASVKLSCTASGYTFTSYWMHWMKQRPGRGLEWIGRIDPNSGTTKYNVNFKTKATLTVDKPSSTAYMHLSSLTSEDSAVYYCARLGHYGNLYAMDYWGQGTSVT
VL: QIVLTQSPAIMSASPGEKVTMTCSASSSVSYMHWYQQKSGTSPKRWIYDTSKLASGVPTRFSGSGSGTSYSLTISSMDTEDAATYYCQQWSSNPPTFGAGTKLELK
notes: also called m2E6
B2: chimeric 2E6 (antibody, V domains shown)
VH: B1 VH
VL: B1 VL
notes: also called ch2E6; Ch2E6
B3: 2E6-HLD-1 (antibody, V domains shown)
VH: QVQLVQSGAEVKKPGASVKVSCKASGYTFTSYWMHWMRQAPGQGLEWIGRIDPNSGTTKYNVNFKTRATLTVDKSTSTAYMELSSLRSEDTAVYYCARLGHYGNLYAMDYWGQGTLVT
VL: EIVLTQSPATLSLSPGERATLSCSASSSVSYMHWYQQKPGQAPRRWIYDTSKLASGVPARFSGSGSGTDYTLTISSLEPEDFAVYYCQQWSSNPPTFGQGTKLEIKR
notes: Humanized 2E6; also called h2E6-HLD-1; H2E6-HLD-1
B4: 8D9 (antibody, V domains shown)
VH: B3 VH with M108K
VL: EIVLTQSPATLSLSPGERATLSCSASSSVSYIHWYQQKPGQAPRRWIYDTSKLASGVPARFSGSGSGTDYTLTISSLEPEDFAVYYCQQWSSNPPTFGQGTKLEIK
B5: 7A10 (antibody, V domains shown)
VH: B3 VH with M108K
VL: B4 VL
notes: also called 2E6_7A10; 2E6-HLD1-7A10
B6: 7C4 (antibody, V domains shown)
VH: B3 VH with S31R, L45P
VL: B4 VL with Y31F, I32M
B7: 2E6-HLD-3 (antibody, V domains shown)
VH: B3 VH with A68V
VL: B3 VL
notes: Humanized 2E6; also called h2E6-HLD-3; H2E6-HLD-3
B8: 2E6-HLD-2 (antibody, V domains shown)
VH: B3 VH with M37V
VL: B3 VL
notes: Humanized 2E6; also called h2E6-HLD-2; H2E6-HLD-2
B9: 9C12 (antibody, V domains shown)
VH: B3 VH with F64I
VL: B4 VL with I32M, W46L
B10: HDL1-3 (antibody, V domains shown)
VH: B3 VH with F64I
VL: B4 VL
notes: also called combination 3: 7A10 light chain+9C12 heavy chain

Columns and labels:
[1] = molecular target: T1, …; assay: Pepscan ELISA on a synthesized peptide array (peroxidase conjugate, ABTS, CCD read-out, scale 0 to 3000) [upper panel]
T1 construct: x-axis label of the 2nd bar, upper panel
Protocol: (§1) The binding of antibody to each of the synthesized 20 mer peptides was tested in a Pepscan based ELISA. The linear peptide array covering the entire coding sequence of alpha-synuclein, as well as all peptides with oxidized methionines or nitrosylated tyrosines, were incubated with primary antibody solution (overnight at 4° C.). After washing, the peptide arrays were incubated with a 1/1000 dilution of an antibody peroxidase conjugate (SBA,cat.nr.2010-05) for one hour at 25° C. After washing, the peroxidase substrate 2,2′-azino-di-3-ethylbenzthiazoline sulfonate (ABTS) and 2 μl/ml of 3 percent H₂O₂ were added. After one hour, the color development was measured. The color development was quantified with a charge coupled device (CCD)—camera and an image processing system. […] The results were quantified and stored into the Peplab database. Occasionally a well contains an air-bubble resulting in a false-positive value, the cards are manually inspected and any values caused by an air-bubble are scored as 0.

[2] = molecular target: T2, …; assay: as above
T2 construct: x-axis label of the 3rd bar, upper panel
Protocol: as §1

[3] = molecular target: T3, …; assay: as above
T3 construct: x-axis label of the 4th bar, upper panel; also called alpha-synuclein 20-mer 121-140
Protocol: as §1

alpha-synuclein [4] = molecular target: T4, alpha-synuclein (human, UniProt P37840 1-140); assay: SPR (Biacore 3000), synuclein ligand format
alpha-synuclein [5] = molecular target: T4, alpha-synuclein; assay: SPR (Biacore 3000), IgG captured by anti-human IgG on CM5 chip, synuclein as analyte
alpha-synuclein [6] = molecular target: T4, alpha-synuclein; assay: as above; remark: listed apart in the source

| Binder | KD improvement (alpha-synuclein [4]) | KD improvement (alpha-synuclein [5]) | KD improvement (alpha-synuclein [6]) | further results |
| --- | --- | --- | --- | --- |
| B1 |  |  |  | binding result [1]: binds; binding result [2]: binds; binding result [3]: binds |
| B2 | 1 fold (Ch2E6 = 1) | 1 fold (Ch2E6 = 1) | 1 fold (Ch2E6 = 1) |  |
| B3 | 2 fold (Ch2E6 = 1) | 2.5 fold (Ch2E6 = 1) | 2.5 fold (Ch2E6 = 1) |  |
| B4 |  | 8.7 fold (Ch2E6 = 1) |  |  |
| B5 |  | 10.3 fold (Ch2E6 = 1) |  | Ka (alpha-synuclein [5]): 1.81e+08 M⁻¹; Kd (alpha-synuclein [5]): 5.52 nM; koff (alpha-synuclein [5]): 0.000285 s⁻¹; kon (alpha-synuclein [5]): 51700 M⁻¹ s⁻¹ |
| B6 |  | 7 fold (Ch2E6 = 1) |  |  |
| B7 | 1 fold (Ch2E6 = 1) |  |  | Kd (alpha-synuclein [4]): 5.32 nM |
| B8 | 1 fold (Ch2E6 = 1) |  |  |  |
| B9 |  | 10 fold (Ch2E6 = 1) |  |  |
| B10 |  |  | 45 fold (Ch2E6 = 1) | Ka (alpha-synuclein [6]): 7.94e+08 M⁻¹; Kd (alpha-synuclein [6]): 1.26 nM; koff (alpha-synuclein [6]): 0.000126 s⁻¹; kon (alpha-synuclein [6]): 99900 M⁻¹ s⁻¹ |
